Target: T1, Aiolos (GST fusion) (Mus musculus, UniProt O08900 SEQ:1-507)
T1 chain: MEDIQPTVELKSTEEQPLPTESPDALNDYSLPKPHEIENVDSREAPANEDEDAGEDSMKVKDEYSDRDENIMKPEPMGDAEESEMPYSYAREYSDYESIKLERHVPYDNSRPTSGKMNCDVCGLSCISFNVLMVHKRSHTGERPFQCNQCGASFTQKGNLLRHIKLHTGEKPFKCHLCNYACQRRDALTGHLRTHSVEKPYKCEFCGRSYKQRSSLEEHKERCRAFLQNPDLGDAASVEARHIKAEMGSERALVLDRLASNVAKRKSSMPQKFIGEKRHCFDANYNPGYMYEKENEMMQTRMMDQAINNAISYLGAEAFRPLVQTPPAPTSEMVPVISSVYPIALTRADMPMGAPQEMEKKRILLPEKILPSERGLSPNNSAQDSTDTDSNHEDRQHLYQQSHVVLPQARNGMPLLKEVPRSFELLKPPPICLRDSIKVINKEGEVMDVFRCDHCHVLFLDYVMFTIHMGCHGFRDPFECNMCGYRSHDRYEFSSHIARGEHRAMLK
Test: EMSA; 0.5 ug protein, 1-2 ng DNA; binding stated generally for Ikaros consensus sites
Conditions: tags: GST
Procedure: DNA binding assays (EMSA) were performed essentially as described in Molnar et al. (1994) Mol. Cell. Biol. 14, 8292-8303. GST-Aiolos and Ikaros fusion proteins and their GST fusion partner (0.5 μg) were tested for binding to the IkBD1-[…] (SEQ ID NO:11) oligonucleotide which contains a high affinity Ikaros binding site (100,000 cpm/reaction which equals 1 to 2 ngs of DNA). Competition assays were performed with Ik-BS 1 and with Ik-BS8 TCAGCTTTTGGGggTACCCTGTCA (SEQ ID NO:12) oligonucleotides used at 5-100× molar excess.

B1: IkBS1 (dsDNA)
DNA 1: TCAGCTTTTGGGAATACCCTGTCA
DNA 2: TGACAGGGTATTCCCAAAAGCTGA
B1: binds.

From patent publication US20050130265, “Aiolos, Helios, Daedalos and Ikaros: genes, polypeptides, regulatory elements and uses thereof” (published 2005)
